According to patent US20100280101, “METHOD OF INHIBITING CANCER CELL PROLIFERATION, PROLIFERATION INHIBITOR AND SCREENING METHOD” (University of Occupational and Environmental Health Japan, published 2010):

T1: ZNF143 (UniProt P52747 SEQ:1-638)
T1 sequence: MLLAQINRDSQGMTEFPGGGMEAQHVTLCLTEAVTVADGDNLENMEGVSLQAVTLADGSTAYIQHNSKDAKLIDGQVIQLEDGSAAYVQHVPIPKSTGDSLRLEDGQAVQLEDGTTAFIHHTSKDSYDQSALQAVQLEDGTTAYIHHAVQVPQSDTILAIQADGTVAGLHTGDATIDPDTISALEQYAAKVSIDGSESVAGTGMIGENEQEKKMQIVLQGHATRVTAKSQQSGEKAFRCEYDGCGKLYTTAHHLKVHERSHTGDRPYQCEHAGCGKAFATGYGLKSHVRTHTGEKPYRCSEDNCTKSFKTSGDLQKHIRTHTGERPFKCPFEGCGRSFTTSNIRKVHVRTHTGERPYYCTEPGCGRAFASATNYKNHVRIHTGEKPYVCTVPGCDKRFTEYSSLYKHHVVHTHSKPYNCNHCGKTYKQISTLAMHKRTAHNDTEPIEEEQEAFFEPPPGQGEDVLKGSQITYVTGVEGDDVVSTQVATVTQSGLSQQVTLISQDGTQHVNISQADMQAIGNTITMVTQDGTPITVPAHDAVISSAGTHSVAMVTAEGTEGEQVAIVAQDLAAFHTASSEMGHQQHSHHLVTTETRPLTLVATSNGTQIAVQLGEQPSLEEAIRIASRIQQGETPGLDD

B1: BUB1 promoter site (dsDNA)
DNA 1: TCTCCCCACCTGCCTCCCG
DNA 2: CGGGAGGCAGGTGGGGAGA
B2: ESPL1 promoter site 1 (dsDNA)
DNA 1: TTACCCGCCGCGCTGCGCG
DNA 2: CGCGCAGCGCGGCGGGTAA
B3: CDCA4 promoter site (dsDNA)
DNA 1: GCTCCCAGGTCTCCGCGCG
DNA 2: CGCGCGGAGACCTGGGAGC
B4: UHRF1 promoter site (dsDNA)
DNA 1: ACTCCCAGGATGCCCTTCC
DNA 2: GGAAGGGCATCCTGGGAGT
B5: CDKN2C promoter site (dsDNA)
DNA 1: ATCCCCAAAATCCAAGCCA
DNA 2: TGGCTTGGATTTTGGGGAT
B6: CCNF promoter site (dsDNA)
DNA 1: ACCCCCAGCTTGCACGGCC
DNA 2: GGCCGTGCAAGCTGGGGGT
B7: ESPL1 promoter site 2 (dsDNA)
DNA 1: ACTCCCAGCGTGCCGCGCG
DNA 2: CGCGCGGCACGCTGGGAGT
B8: MCM4 promoter site 2 (dsDNA)
DNA 1: TTTCCCGGGGACCCCTGCG
DNA 2: CGCAGGGGTCCCCGGGAAA
B9: BIRC5 (survivin) promoter site (dsDNA)
DNA 1: GCCCCCACCCTCCACTGGG
DNA 2: CCCAGTGGAGGGTGGGGGC
B10: MCM5 promoter site (dsDNA)
DNA 1: GTGCCCATTTTGCATTGGG
DNA 2: CCCAATGCAAAATGGGCAC
B11: CDT1 promoter site 2 (dsDNA)
DNA 1: CCTCCCCCCGTGCTCTGCC
DNA 2: GGCAGAGCACGGGGGGAGG
B12: PLK1 promoter site 2 (dsDNA)
DNA 1: GCTCCCATGGTGCCGCGCG
DNA 2: CGCGCGGCACCATGGGAGC
B13: MCM4 promoter site 1 (dsDNA)
DNA 1: GTACCCACCCAGCACCGCG
DNA 2: CGCGGTGCTGGGTGGGTAC
B14: MCM3 promoter site (dsDNA)
DNA 1: ACTCCCAGAACGCAATGCC
DNA 2: GGCATTGCGTTCTGGGAGT
B15: CCNE2 promoter site (dsDNA)
DNA 1: CTTCCCACCCGGCCAGGTC
DNA 2: GACCTGGCCGGGTGGGAAG
B16: WEE1 promoter site (dsDNA)
DNA 1: TTAATCTGTCCCTTAATGCACTTAC
DNA 2: GTAAGTGCATTAAGGGACAGATTAA
B17: RFC4 promoter site (dsDNA)
DNA 1: CCAGCCTAGCCCACTGTGCATGAAG
DNA 2: CTTCATGCACAGTGGGCTAGGCTGG
B18: GTSE1 promoter site (dsDNA)
DNA 1: ACTACAATACCCAGGACGCACCCAG
DNA 2: CTGGGTGCGTCCTGGGTATTGTAGT
B19: CDC2L6 promoter site 2 (dsDNA)
DNA 1: ACTTCATTTCCCAGGAGCCTCCGCG
DNA 2: CGCGGAGGCTCCTGGGAAATGAAGT
B20: CCNA2 promoter site (dsDNA)
DNA 1: CAGGCACTGCCCAGCGTGGCGAGCC
DNA 2: GGCTCGCCACGCTGGGCAGTGCCTG
B21: CDC2L6 promoter site 1 (dsDNA)
DNA 1: AATACAGCTCCCAGGTTACCTCGGG
DNA 2: CCCGAGGTAACCTGGGAGCTGTATT
B22: CDCA8 promoter site 2 (dsDNA)
DNA 1: CCCGCCCTCCCCACCAACCCACCCG
DNA 2: CGGGTGGGTTGGTGGGGAGGGCGGG
B23: CDK2 promoter site (dsDNA)
DNA 1: CATTGCTTTCCCATCCTGCTACTCA
DNA 2: TGAGTAGCAGGATGGGAAAGCAATG
B24: PFS2 promoter site (dsDNA)
DNA 1: TCTCGACTTCCCAAAGTGCTGGGAT
DNA 2: ATCCCAGCACTTTGGGAAGTCGAGA
B25: RFC2 promoter site (dsDNA)
DNA 1: GGTGGAATTCCCATCTTGCAGCCGA
DNA 2: TCGGCTGCAAGATGGGAATTCCACC
B26: CDCA3 promoter site (dsDNA)
DNA 1: GACGTAGTTCCCATAGGCCCTCCAC
DNA 2: GTGGAGGGCCTATGGGAACTACGTC
B27: CDT1 promoter site 1 (dsDNA)
DNA 1: CCCTTCCCTCCCCCCGTGCTCTGCC
DNA 2: GGCAGAGCACGGGGGGAGGGAAGGG
B28: MCM2 promoter site (dsDNA)
DNA 1: CCTCGGCTTCCCAAAGTGCTGGGAT
DNA 2: ATCCCAGCACTTTGGGAAGCCGAGG
B29: CDCA5 promoter site (dsDNA)
DNA 1: TGCGCCTCTCCCTTCAGCCCCGGCC
DNA 2: GGCCGGGGCTGAAGGGAGAGGCGCA
B30: CDCA8 promoter site 1 (dsDNA)
DNA 1: ACTACTACTCCCGGCAGGCCTTGTG
DNA 2: CACAAGGCCTGCCGGGAGTAGTAGT
B31: AURKB promoter site (dsDNA)
DNA 1: CCTCGGCTTCCCAAAATGCTGGGAT
DNA 2: ATCCCAGCATTTTGGGAAGCCGAGG
B32: SPBC25 promoter site (dsDNA)
DNA 1: ACTACGAATCCCAGAATGCCCTGTT
DNA 2: AACAGGGCATTCTGGGATTCGTAGT
B33: PLK1 promoter site 1 (dsDNA)
DNA 1: CAGGGCGCTCCCATGGTGCCGCGCG
DNA 2: CGCGCGGCACCATGGGAGCGCCCTG
B34: CDC6 promoter site (dsDNA)
DNA 1: ACTACGCCTCCCAGCGTGCTTTGCG
DNA 2: CGCAAAGCACGCTGGGAGGCGTAGT
B35: ZNF367 (CDC14B) promoter site (dsDNA)
DNA 1: CGGGTCCTTCCCACCTCGCCATTGG
DNA 2: CCAATGGCGAGGTGGGAAGGACCCG

biological target: T1, ZNF143; assay: EMSA; also ChIP

Does B1 bind?
Result: binds

Does B2 bind?
Result: binds

Does B3 bind?
Result: binds

Does B4 bind?
Result: binds

Does B5 bind?
Result: binds

Does B6 bind?
Result: binds

Does B7 bind?
Result: binds

Does B8 bind?
Result: binds

Does B9 bind?
Result: binds

Does B10 bind?
Result: binds

Does B11 bind?
Result: binds

Does B12 bind?
Result: binds

Does B13 bind?
Result: binds

Does B14 bind?
Result: binds

Does B15 bind?
Result: binds

biological target: T1, ZNF143; assay: EMSA; also ChIP; binding retained without 5'-terminal 6 bases

Does B16 bind?
Result: binds

Does B17 bind?
Result: binds

Does B18 bind?
Result: binds

Does B19 bind?
Result: binds

Does B20 bind?
Result: binds

Does B21 bind?
Result: binds

Does B22 bind?
Result: binds

Does B23 bind?
Result: binds

Does B24 bind?
Result: binds

Does B25 bind?
Result: binds

Does B26 bind?
Result: binds

Does B27 bind?
Result: binds

Does B28 bind?
Result: binds

Does B29 bind?
Result: binds

Does B30 bind?
Result: binds

Does B31 bind?
Result: binds

Does B32 bind?
Result: binds

Does B33 bind?
Result: binds

Does B34 bind?
Result: binds

Does B35 bind?
Result: binds
